{"source": "patent US20240207383", "proteins": {"B1": {"name": "PglS oligosaccharyltransferase (protein)", "chain": "MNSIFKKIKNYTIVSGVFFLGSAFIIPNTSNLSSTLYKELIAVLGLLILLTVKSFDYKKILIPKNFYWFLFVIFIIFIQLIVGEIYFFQDFFFSISFLVILFLSFLLGFNERLNGDDLIVKKIAWIFIIVVQISFLIAINQKIEIVQNFFLFSSSYNGRSTANLGQPNQFSTLILITLFLLCYLREKNSLNNMVFNILSFCLIFANVMTQSRSAWISVILISLLYLLKFQKKIELRRVIFFNIVFWTLVYCVPLLFNLIFFQKNSYSTFDRLTMGSSRFEIWPQLLKAVFHKPFIGYGWGQTGVAQLETINKSSTKGEWFTYSHNLFLDLMLWNGFFIGLIISILILCFLIELYSSIKNKSDLFLFFCVVAFFVHCLLEYPFAYTYFLIPVGFLCGYISTQNIKNSISYFNLSKRKLTLFLGCCWLGYVAFWVEVLDISKKNEIYARQFLFSNHVKFYNIENYILDGFSKQLDFQYLDYCELKDKYQLLDFKKVAYRYPNASIVYKYYSISAEMKMDQKSANQIIRAYSVIKNQKIIKPKLKFCSIEY"}}, "biological_target": "ComPC1-CRM197 fusion protein", "data": [{"protein": "B1", "values": [{"measurement": "glycosylation with CPS8, Western blot of periplasmic extracts (anti-His)", "value": "the ComPC1-CRM197 was also glycosylated by PglS"}]}]}
